Assay: yeast display, Sf9 membrane polyspecificity reagent, FACS + sequencing; frameworks hold sequencing errors
Summary of the method: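 Sorting gates, low and high (top ~1%), were placed on anti-HA fluorescence to track expression and on streptavidin fluorescence to track reagent binding. A clone's polyreactivity label is taken from the gate it came out of. The reagent was 10% biotinylated, detergent-solubilized Sf9 membrane, applied for 1 hour at 4 °C to galactose-induced yeast display cells.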

Row | Sequence | polyreactivity (PSR sort gate)
1 | QVQLVESGGGLVQAGGSLRLSCAASGSIFYPYAMGWYRQAPGKERELVAAISSSGGSTYYADSVKGRFTISRDNAKNTVYLQMNSLKPEDTAVYYCAADAATGIFDRLNYWGQGTQVTVSS | high polyreactivity
2 | QVQLVESGGGLVQAGGSLRLSCAASGIIFPVYAMGWFRQAPGKERELVATIDSGGGTYYADSVKGRFTISRDNANNTVYLQMNSLKPEDTAVYYCNASHPPKAELAHWGQGTQVTVSS | low polyreactivity
3 | QVQLVESGGGIVQAVGSLRLSCAASGSTFRLYAMGWYRQAPGKERELVAAISSNGVRTYYADSVKGRFTISRDNAKNTVYLQINSLKPEDTAVYYCAARVYPAYPRGYDYWGQGTQVNVSS | high polyreactivity
4 | QVQLVESGGGLVQAGGSLRLSCAASGRTFWYYTMGWYRQAPGKEREFVAAIRGSGTSTYYADSGKARFTISRDNAKNNVYLQMNSLKPEDTAVYYCAAESPVYHLVTYDYWGQGTQVTVSW | high polyreactivity
5 | QVQLVESGGGLVQAGGSLRLICAASGRILYGNVMGWYRQAPGKERELVAAIDSSGATTYYADSVKGRFTISRDNAKNTVYLQMNSLKPEDTAVYYCAAEVTSFSFGGDATEYYWGQGTQVTVSS | low polyreactivity
6 | QVQLVESGGGLVQAGGSLRLSCAASGSTFRAYAMGWYRQAPGKEREFVASISWSGGRTYYADSVKGRFTISRDNAKNTVYLQMNSLKPEDTAVYYCAVDLSTHDYDYWGQGTQVTVSS | low polyreactivity
7 | QVQLVESGGGLVQAGGSLRLSCAASGSTFLTYDMGWYRQAPGKERELVAAISGGGSTNYADSVKGRFTISRDNAKNTFYLQMNSLKPVDTAVYYCAAKASGNFYYYWGQGTQVTVSS | high polyreactivity
8 | QVQLVESGGGLVQAGGSLRLSCAASGRIFVKNAMGWYRQAPGKERELVATISSGGNTNYADSVKGRFTISRDNAKNTVYLQMNSLKPEDTAVYYCAAVWDLGDYELPYDYWGQGTQVTVSS | low polyreactivity
9 | QVQLVESGGGLVQAGGSLRLSCAASGSIFASNAMGWYRQAPGKEREFVAAIRYSGGITYYADSVKGRFTISRDNAKNTVYLQMNSLKPEDTAVYSCAAYGWGIRWYSRFDYWGQGTPVTVSS | high polyreactivity
10 | QVQLVESGGGLVQAGGSLRLSCAASGRIFFTYAMGWYRQAPGKERELVASITGSGGSTYYADSVKGRFTISRDNAKNTVYLQMNSLKPEDTAVYYCAAALFRRQLYRKFYYWGQGTQVTVSS | low polyreactivity
11 | QVQLVESVVGLVQEGGSLRFSCAASASTLDSNPIGWYRQAPGKEREVVAAITSGGSTYYADSVKGRFTISRDNAKNTVYLQMNSLKPEDSAVYYCATAWYLGRYRSLGYWGQGTQVTVSS | high polyreactivity
12 | HVPLVESGGGIVQAGGRMRLSCAASGSTFTEYAMGGYRQAPGKQREWVAGISSDGSTKYADSVKGRFTISRDNAKNTVYLQMNSLNPEDSAVYYCNKDQSDAKFDYWGQGTQVTVSS | low polyreactivity
13 | QVQLVESGGGLVQAGGSLRLSCAASGSTFRHYAMGWYRQAPGKESELVAAISSTGGSTHNADSVKGRFTISRDNAKNTVFLQLHSLKPEDTAVDYCAARRLYWGQGTQVTVSS | high polyreactivity
14 | QVQLVESGGGLVQAGGSLRLSCAASGFTFLWNAMGWYRQAPGKERELVAAISSSGGRTYYADSVKGRFTISRDNAKNTVYLLMNSLKPEDTAVYYCARVYSSPYNFGYWGQGTQVTVSS | low polyreactivity
15 | QVQLVESGAGLVQAGGSLRLSCAASGSTFGFNTMGWYRQAPGKERELVAAISWSTGRTNYADSVKGRFTISRDNAKNTVYLQMNRLKPEDTAVYYCAARALDKYRFGGRYDYWGQGTQVTVSS | low polyreactivity
16 | QVQHVESGGGLVQAGGSLRLSCAASVRTLYYYAMGWSRQAPGKERELVAAISGGGRTYYADSVKGRFTISRDNAKNTVYLQMIILKPEDTAVYYCAARYRKSGLDNYWGQGTQVTVSS | high polyreactivity
17 | QVQLVESGGVLVQAGGSLRLRCAASGRIFSRYTMGWYRQAPGKERELVAAIRNTGSTNYADSVKGRFTISRDNAKNTVYLQMNSLKPEDTAVYYCNARTAYGAYHYYYPQRMDYWGQGTQVTVSS | high polyreactivity
18 | QVQLVESGGGLVQAGGSLRLSCAASGSTFTIYAMGWYRQAPGKEREFVAAIDEDDGSTYYADSVKGRFTISRDNAKNTVYLQMNSLKPEDTAVYYCNADDIWGYAFDYWGQGTQVTVSS | low polyreactivity
19 | QVQLVESGGGLVQAGGSLRLSCAASGRIFRIYTMGWYRQAPGKERELVAAITKSGGSTSYADSVKGRFTISRDNAKNTVYLQMNILKPEDTAVYYCNAKGWTRPPGYDYWGQGTQVTVSS | high polyreactivity
20 | QVQIEESGGGLVQAGGSLPLSCAASGTIFKYYTRGWYRLAPGKERELFAAISGSGGTTYYADSVKGRFTISRDNAKNTVYLQMNSLKPEDTAVYYCATAYYRAFRGDYWGQGTQVTVSS | high polyreactivity
21 | QVQLVESGGGLVQAGGSLRLSCAASGLIFTYYTMGWYRQEPGTERELVATINWNTSSTYYADSVKGRFTISRDNAKNTVYLQMNSLKPEDTAVYYCNKRIAESDTTVTYDYWGQGTQVTVSS | low polyreactivity
22 | QVQLVESAGGLVQAGGSLRLSCAASGTIFALYAMGWYRQAPGKERELVARITRGGGSTYYADSVKGRFTISRDNAKNTVYLQMNSLKPEDTAVYYCAAARWSQYRTWMNYWGQGTQVTVSS | high polyreactivity

Row | Sequence | polyreactivity (PSR sort gate)
23 | QVQLVESGGGLVQAGGSLRLSCAASGSTFYPNAMGWYRQAPGKERELVAAITGGGSTTYADSVKGRFTISRDNAKNTVYLQMNSLKQEDTAVYYCNTDGPRYARPYDSWGQGTQVTVSS | low polyreactivity
24 | QVQLVESGGGLVQAGGSLRLSCAASGSTFVYYDMGWFRQAPGKERELVASISWSGGSTRYADSVKGRFTISRDNAKNTVYLQMNSLKPEDTAVYYCNKSNPDYDGLAIHAFDYWGQGTQVTVSS | low polyreactivity
25 | QVQIVESGGGLVQAGGSLRLSCAASGRTFRANAMGWYRQAPGKERELVAAIRTGTRTYYADSVKGRFTISRDNANNTVYFQMNSLKTVDSAVYYCAARYYHPYSHGYWQERDYWGQGTKVTVSS | high polyreactivity
26 | QVQLVESGGGLVQAGGSLRLSCAASGISFYLYAMGWYRQAPGKERELVAAISWRGDSTYYADSVKGRFTISRDNAKNTVYLQMNSLKPEDTAVYYCAADLLPLYDYWGQGTQVTGSS | high polyreactivity
27 | QVQLVESGGGLVQAGGSLRLSCAASGITFKYNAMGWYRPAPGKERELVAAISSGGNTYYADSVKGRFTISRDNAKNTVYLQMNSLKPEDTAVYYCAAPSYDTLWHDYWGQGTQVTVSS | low polyreactivity
28 | QVQLVESGGGLVQAGGSLRLSCAASGRTFWYYTMGWYRQAPGKERELVAAITRRGGSTYYADSVKGRFTLSRDKAKNTVYLQMNSLKPEDTAVYYCARGGSRLTQGWLVTPYDYDYWGQGTQVTVSS | high polyreactivity
29 | QVQLVESGGSLVQAGGSLRLICAASGFIFWTYAMGWYRQAPGKERELVARISWSGGSTYYADSVKGRFTNSRDNAKNTVYLQMNSLKPEDTAVYYCAALTESSSYGYWGQGTQVTVSS | low polyreactivity
30 | QVQLVEAGGGLVQAGGSLRLSCAASGRTFKGYAMGWYRPAPGKERELVAAITKRGGSTYYADSVKGRFTISRDNAKNTVYLQMNSLKPEDTAVYYCNADKQGSRHGDDYWGQGTQVTVSS | high polyreactivity
31 | QVQLVESGGGLVQAGGSLRLSCAATGRIFSFYAMGWYRQAPGKERELVAAITWGDGSTYYAVSVKGRFTISRDNAKNTVYLQMNSLKPEDTAVYYCNKTYIDTTVYDVIMDYWGQGTQVTVSS | low polyreactivity
32 | QVQLVESGRGLVQAGGSLRLSCAASGRTFRWYAMGWYRKAPGKERELVAAISGSGDRTYYADSVKGRFTISRDNAKNTVYLQMYSLKPVDTAVYYCYKAYLLYYTYARGDYWGQGTQVTVSS | high polyreactivity
33 | QVQLVETGGGLVQAGGSLRLSCAASGITLPKYAMGWYRQAPGKERELVAAISRSSGRTYYADSVKGRFTISRDNAKNTVYLQMNSLKPEDTAVYYCAASHGGYITRYNYWGQGTQVTVSS | high polyreactivity
34 | QVQLVESGGGLVQAGGSLRLSCAASGRTIVRYAMGWYRQAPGKERDLVAAITARGGSTYYADSVKGRFTISRDNAKNTVYLQMNRLKPEDTEVYYCATYYSGSLGRYYYWGKGTQVTVSS | high polyreactivity
35 | QVQLVESGGGLVQAGGSLRLSCAASGNIFDLYAMGWYRQAPGKERELVAAITRSSSRTYYADSVKGRFTISRDNAKNTVYLQMNSLKPEDTAVYYCRAKQVNRFDYWGQGTQVTVSS | high polyreactivity
36 | HVQLVESGGGLVPAGGSLRLSCAASGSTFIGYARGWYRQAPGKERELVAAISWSGGRTYYADSVKGRFTISRDNAKNTVYLQMNSLKPEDTAVYYCNTVPYRISVQFNYWGQGTQVTVSS | high polyreactivity
37 | QVQLVESGGGLVQAGGRLRLSCAASGSTLYPNAMGWSRQAPGKDRELVAAISSGSSTYADSVKGRFTISRDNAKNTVYLQMNSLKPADTAVYYCNADAPIHYDYWGQGTQVTVSS | low polyreactivity
38 | QVQLVESGGGLVQAGGSLRLSCAASGRTFPSYAMGWYRQAPGKERELVAAITRGGSTNYADSVKGRFTISRDNAKNTVYLQMNSLKPEDTAVYYCAAARWRWQLARDDYWGEGTQVTVSS | high polyreactivity
39 | QVQLVESGGGLVQAGGSLRLSCAASGRIFIYNAMGWYCQAPGKERELVAAINRSGVSTHYADSVKGRFTISRDNAKNTVYLQMNSLKPEDTAVYYCARTDYGARSYDYWGQGTQVTVSS | low polyreactivity
40 | QVQLVESGGGLVQAGGSLRLSCDASGSTFGPYTMGWYRQAPGKERELVATISSGGSTYYADSVKGRFTISRDNAKNTVYLQMNSLKPEETAVYYCAARYWSIYDYWGPGTQVTVSS | low polyreactivity
41 | QVQLVESGGGLVQAGGSLRLSCAASGSIFSSYAMGWYRQAPGKERELVAAISSGGGITYYADSVKGRFTISRDNAKNTVYLQMNSLKPEDTAVYYCNARVARSNNGWYYYWGQGTQVTVSS | high polyreactivity
42 | QVQLVESGGGLVQEGGSLRLSCAASGRTFVPYAMGWYRQAPGKERELVAAISRSGGRTYYADSVKGRFTLSRDNAKNTVYLQMKSLKPEDTAVYYCAARYYSEPNAYYYWGQGTQVSVSS | high polyreactivity
43 | QVQLVESGGGLVQAGGSLRLSCAASGFIFSYYAMGWYRQAPGKERELVAAITSNGGSTYYADSVKGRFTISRDNAKNTVYLQMNSLKPEDTAVYYCNVKYRYWNQGYGSWGQGTQVTVSS | high polyreactivity

Source: the nanobody polyreactivity screen of Harvey et al. (2022)
